Values joined by “and” are separate entries in the source; they are usually repeats but may differ in a detail not shown here. Identical values can stand only once. Where no end group is shown, it is not given here. The star is where a group is joined. Biotin = O=C1N[C@H]2[C@H](CS[C@H]2CCCCC(=O)*)N1

Holding throughout (conditions): both partners purified
The target of test [1] is T1, 13C-15N isotope-labeled A1aY1 protein (thrombin-cleaved) (13C, 15N isotope-labeled).
T1 construct: A1aY1, an SSO7D mutant selected from a combinatorial yeast display library; source: E. coli Rosetta (DE3) grown in M9 media, purified (Ni-NTA, SEC, thrombin cleavage, SEC); not shown: His6, N-terminal, cleaved
T1 chain: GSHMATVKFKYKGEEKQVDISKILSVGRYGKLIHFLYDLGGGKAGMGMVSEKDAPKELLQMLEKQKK
As to the kind of experiment: NMR titration; 1H-15N HSQC of 13C,15N-labeled A1aY1 with nonbiotinylated peptides added at 0.5 to 7 equivalents (Hs_TUBA1A) or 1 to 4 equivalents (Hs_TUBA1A-ΔY); 25°C.

In a further test the target is T2, biotin-TUBA1A 440-450 (human).
T2 construct: C-terminal tail of human alpha-tubulin TUBA1A, amino acids 440-450, without the terminal tyrosine (detyrosinated); source: synthetic peptide (Thermo Fisher Scientific)
T2 peptide: Biotin-VEGEGEEEGEE
As to the kind of experiment: SPR; steady-state binding assay, Biacore-T200; biotinylated peptides immobilized on a streptavidin (SA) sensor chip at 100-300 response units; A1aY1 titrated from 0.031 to 200 µM; 1x HBS-P+ (10 mM Hepes, 150 mM NaCl, 0.05% surfactant P20), 30 µl/min; 1:1 binding considered, one site total fit.

The next test deals with T3, biotin-TUBA1A 440-451 (human).
T3 construct: C-terminal tail of human alpha-tubulin TUBA1A, amino acids 440-451, tyrosinated; source: synthetic peptide (Thermo Fisher Scientific)
T3 peptide: Biotin-VEGEGEEEGEEY
Described as above.

Another test deals with T4, biotin-Tba-1 437-449 (C. elegans).
T4 construct: C-terminal tail of C. elegans alpha-tubulin Tba-1, amino acids 437-449; source: synthetic peptide (LifeTein)
T4 peptide: Biotin-SNEGGNEEEGEEY
The test is described as above.

A further test concerns the target T5, biotin-Tub84B 438-450 (Drosophila).
T5 construct: C-terminal tail of Drosophila alpha-tubulin Tub84B; they would span 439-450 if the last residue is 450; source: synthetic peptide (LifeTein)
T5 peptide: Biotin-SGDGEGEGAEEY
Described as above.

The target in test [2] is T6, biotin-TUBA1A 440-451-[E]445 (human).
T6 construct: C-terminal tail of human alpha-tubulin TUBA1A, amino acids 440-451, printed VEGEG[E]EEGEEY with [E] the monoglutamylated residue 445; source: synthetic peptide (Thermo Fisher Scientific)
T6 peptide: Biotin-VEGEGE(Glu)EEGEEY
The test is described as above.

B1: nonbiotinylated Hs_TUBA1A peptide (peptide)
peptide: VEGEGEEEGEEY
notes: C-terminal tail of human alpha-tubulin TUBA1A, amino acids 440-451, tyrosinated, without biotin; also called tyrosinated peptide; α-tubulin CTT peptide; source: synthetic peptide (LifeTein)
Consider B1, for which the binding result in test [1] is given as “binds”.

B2: A1aY1 binder (designed binder)
chain: MATVKFKYKGEEKQVDISKILSVGRYGKLIHFLYDLGGGKAGMGMVSEKDAPKELLQMLEKQKK
notes: A1aY1, an SSO7D mutant selected from a combinatorial yeast display library; (His6, thrombin site, A1aY1); Protein used in the SPR steady-state titrations; The results say 'without any tags'; the methods describe the stored protein as 9.3 kD, which is the size with His6 and thrombin site, and tell of thrombin cleavage only for the NMR sample; also called tyrosination sensor; source: E. coli …
In the case of B2, the Kd is more than 60 µM with biotin-TUBA1A 440-450; 1.6 ± 0.3 µM with biotin-TUBA1A 440-451; 1 ± 0.2 µM with biotin-Tba-1 437-449; 4.1 µM and 4 µM in the test with biotin-Tub84B 438-450; 13.6 ± 4.5 µM in test [2].

The record behind these values is paper PMC7659708, “Genetically encoded live-cell sensor for tyrosinated microtubules” (The Journal of Cell Biology, 2020).
